From patent US20260125455A1 (CLEVELAND CLINIC FOUNDATION, published 2026)

B1: C601HOKC4 HuG4K (antibody, human IgG4 S228P, kappa, V domains shown)
VH: QVQLVQSGAEVKKPGESLKISCKASGYAFSDYWINWVRQMPGKGLEWMGQIYPGDDDTNYNPSFQGQATLSADKSISTAYLQWSSLKASDTAMYYCAREGYYGYTYVEYFDVWGTGTTVTVSS
VL: QIVLTQSPATLSLSPGERATLSCRASSSVSYLHWYQQKPGQSPRLWIYDTSKRATGIPARFSGSGSGTDYTLTISSLEPEDFAVYYCQQWTSNPLTFGQGTKLEIKR
B2: C601HPKC4 HuG4K (antibody, human IgG4 S228P, kappa)
heavy: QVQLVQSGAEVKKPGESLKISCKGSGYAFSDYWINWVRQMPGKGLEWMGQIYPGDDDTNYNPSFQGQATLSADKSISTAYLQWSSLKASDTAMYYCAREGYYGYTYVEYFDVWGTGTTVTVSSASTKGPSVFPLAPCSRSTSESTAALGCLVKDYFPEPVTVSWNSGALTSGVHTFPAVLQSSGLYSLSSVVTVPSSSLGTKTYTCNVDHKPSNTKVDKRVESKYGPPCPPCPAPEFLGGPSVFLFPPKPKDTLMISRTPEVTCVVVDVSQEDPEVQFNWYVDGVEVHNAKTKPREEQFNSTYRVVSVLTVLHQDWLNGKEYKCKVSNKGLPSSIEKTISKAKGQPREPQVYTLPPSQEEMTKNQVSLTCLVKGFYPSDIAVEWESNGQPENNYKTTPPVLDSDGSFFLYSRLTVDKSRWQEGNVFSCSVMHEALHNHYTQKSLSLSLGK
light: QIVLTQSPATLSLSPGERATLSCRASSSVSYLHWYQQKPGQSPRLWIYDTSKRATGIPARFSGSGSGTDYTLTISSLEPEDFAVYYCQQWTSNPLTFGQGTKLEIKRTVAAPSVFIFPPSDEQLKSGTASVVCLLNNFYPREAKVQWKVDNALQSGNSQESVTEQDSKDSTYSLSSTLTLSKADYEKHKVYACEVTHQGLSSPVTKSFNRGEC

Key:
[1] = biological target: T1, human complement protein C6 (human, UniProt P13671 22-934); assay: SPR (Biacore 8K)
T1 construct: also called human C6; C6 antigen
T1 sequence (P13671 22-934 limits assumed): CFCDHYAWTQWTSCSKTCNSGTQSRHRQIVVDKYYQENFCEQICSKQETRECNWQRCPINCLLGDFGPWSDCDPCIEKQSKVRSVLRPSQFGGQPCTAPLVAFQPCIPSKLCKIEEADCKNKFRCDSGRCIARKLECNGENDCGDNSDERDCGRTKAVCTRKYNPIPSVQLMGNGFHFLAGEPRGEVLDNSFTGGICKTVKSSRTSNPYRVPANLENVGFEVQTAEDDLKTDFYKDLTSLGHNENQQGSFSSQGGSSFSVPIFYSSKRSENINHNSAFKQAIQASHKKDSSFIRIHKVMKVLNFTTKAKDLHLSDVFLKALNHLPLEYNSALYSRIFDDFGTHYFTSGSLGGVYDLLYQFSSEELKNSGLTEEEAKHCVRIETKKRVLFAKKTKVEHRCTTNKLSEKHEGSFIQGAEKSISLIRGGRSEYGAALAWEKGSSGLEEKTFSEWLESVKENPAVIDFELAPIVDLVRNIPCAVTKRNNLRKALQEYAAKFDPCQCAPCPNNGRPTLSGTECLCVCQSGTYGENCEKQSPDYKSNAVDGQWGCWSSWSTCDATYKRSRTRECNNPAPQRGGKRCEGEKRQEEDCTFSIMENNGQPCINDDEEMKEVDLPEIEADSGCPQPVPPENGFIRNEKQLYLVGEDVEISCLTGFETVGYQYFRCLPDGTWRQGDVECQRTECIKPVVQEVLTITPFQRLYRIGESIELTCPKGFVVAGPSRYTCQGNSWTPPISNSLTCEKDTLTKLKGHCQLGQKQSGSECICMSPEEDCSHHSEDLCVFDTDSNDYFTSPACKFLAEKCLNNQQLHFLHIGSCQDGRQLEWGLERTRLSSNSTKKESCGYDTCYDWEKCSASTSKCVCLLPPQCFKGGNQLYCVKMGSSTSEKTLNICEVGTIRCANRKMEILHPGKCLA
Procedure: (§1) The kinetics of C6 binding was compared for the purified chimeric and lead humanized C601 using surface plasmon resonance (SPR, Biacore 8K). IgG were captured on a protein G sensor chip and binding of C6 measured using a three-fold concentration series of C6 from 0.03 nM-25 nM (FIG. 5). In a second experiment, a two-fold concentration series from 0.31 nM-20 nM C6 was used (FIG. 6). For all antibodies, binding of C6 occurred in a concentration-dependent manner and data could be fitted using a 1:1 model to calculate the association rate (kₒₙ), dissociation rates (kd) and affinity constant (KD). The kinetic data are shown in Table 5, which indicates only small differences between the parameters determined from the two independent experiments.
(§2) Binding ELISAs used Nunc Maxisorp 384-well plates, wells coated with C6, C5b,6 complex or C5 (Complement Technology Inc, TX) and goat anti-human IgG (Fab specific) peroxidase secondary antibodies (Sigma-Aldrich, A0293) for detection. For the thermal stability assay, IgG supernatants were diluted to their EC₈₀ concentration, incubated at different temperatures for 10 min and C6 binding measured by ELISA with the binding signal plotted against temperature. Kinetics of C6 binding were measured by capturing antibodies from supernatant samples using Protein G biosensors and performing a 20 min association step with 2.5 nM C6 and a 20 min dissociation step using the Octet RED96. Precise kinetic measurements were obtained by surface plasmon resonance (Biacore 8K, Cytiva). The IgG were captured on a protein G sensor chip. Binding of C6 measured using a three-fold concentration series of C6 from 0.03 nM-25 nM and data were fitted using a 1:1 model in two independent experiments.

[2] = biological target: human complement protein C5 (human, UniProt P01031 19-673; P01031 678-1676); assay: ELISA, C5-coated wells
Chain of human complement protein C5 (P01031 19-673 limits assumed, chain 1 of 2): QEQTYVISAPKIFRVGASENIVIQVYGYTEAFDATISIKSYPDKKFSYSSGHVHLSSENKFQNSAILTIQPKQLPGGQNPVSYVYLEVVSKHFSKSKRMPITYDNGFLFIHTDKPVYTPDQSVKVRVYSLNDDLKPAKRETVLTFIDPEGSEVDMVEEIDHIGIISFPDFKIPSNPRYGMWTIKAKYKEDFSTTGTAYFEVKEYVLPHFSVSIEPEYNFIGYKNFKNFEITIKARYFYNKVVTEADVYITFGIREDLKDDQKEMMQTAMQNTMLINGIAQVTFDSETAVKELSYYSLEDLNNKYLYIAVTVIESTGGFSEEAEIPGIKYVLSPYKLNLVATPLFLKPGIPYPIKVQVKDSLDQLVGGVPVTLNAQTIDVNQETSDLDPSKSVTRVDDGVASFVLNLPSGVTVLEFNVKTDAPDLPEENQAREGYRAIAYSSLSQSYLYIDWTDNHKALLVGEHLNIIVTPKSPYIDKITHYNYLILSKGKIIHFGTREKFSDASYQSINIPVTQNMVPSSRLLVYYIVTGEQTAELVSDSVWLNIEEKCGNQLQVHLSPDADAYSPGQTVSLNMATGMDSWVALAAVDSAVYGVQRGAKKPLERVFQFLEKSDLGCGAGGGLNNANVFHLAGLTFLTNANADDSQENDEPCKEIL
Chain of human complement protein C5 (P01031 678-1676 limits assumed, chain 2 of 2): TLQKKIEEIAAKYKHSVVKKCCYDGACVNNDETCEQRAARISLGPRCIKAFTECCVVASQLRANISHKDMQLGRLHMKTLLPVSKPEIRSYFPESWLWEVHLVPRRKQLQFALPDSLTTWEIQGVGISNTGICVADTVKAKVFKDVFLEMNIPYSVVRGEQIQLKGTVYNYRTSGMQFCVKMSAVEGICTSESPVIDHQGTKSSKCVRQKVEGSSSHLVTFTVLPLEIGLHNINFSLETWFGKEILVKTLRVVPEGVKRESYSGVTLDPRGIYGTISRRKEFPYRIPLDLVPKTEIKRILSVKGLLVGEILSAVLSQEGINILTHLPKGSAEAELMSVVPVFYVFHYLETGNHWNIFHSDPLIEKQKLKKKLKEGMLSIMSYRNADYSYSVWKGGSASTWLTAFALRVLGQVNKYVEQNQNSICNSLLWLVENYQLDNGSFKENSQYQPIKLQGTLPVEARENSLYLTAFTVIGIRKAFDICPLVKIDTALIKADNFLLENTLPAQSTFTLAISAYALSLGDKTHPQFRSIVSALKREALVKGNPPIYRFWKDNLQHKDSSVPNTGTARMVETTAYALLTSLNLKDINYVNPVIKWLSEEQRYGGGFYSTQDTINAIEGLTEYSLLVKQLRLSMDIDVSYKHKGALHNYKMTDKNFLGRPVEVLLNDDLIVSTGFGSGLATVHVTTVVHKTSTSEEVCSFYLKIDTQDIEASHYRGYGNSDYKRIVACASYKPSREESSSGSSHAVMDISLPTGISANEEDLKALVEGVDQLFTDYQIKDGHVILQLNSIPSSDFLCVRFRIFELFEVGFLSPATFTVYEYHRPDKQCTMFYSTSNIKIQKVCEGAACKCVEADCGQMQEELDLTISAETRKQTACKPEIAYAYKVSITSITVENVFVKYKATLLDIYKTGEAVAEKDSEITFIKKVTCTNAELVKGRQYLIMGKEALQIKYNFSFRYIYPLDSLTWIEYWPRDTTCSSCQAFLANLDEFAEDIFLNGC
Procedure: The 20 purified antibodies were tested by ELISA for their abilities to bind human complement proteins C5, C5b6 and C6. The antibodies were divided into two sets for this analysis. MoC601 HuG4K and HuG4K isotype controls were included alongside each set, as was C601HFKC4 HuG4K (aka 3713) expression supernatant from the original transfection as an additional positive control. In addition, three humanized antibodies (C601HFKC4 HuG4K, C601HPKI HuG4K and C601HPKC4 HuG4K) were included within both sets to allow better comparison between the plates. The antibodies all show specificity for C6 with no detectable binding to C5. All humanized antibodies bind to C6 and to C6 as part of the C5b6 complex. The lower plateaus of the C5b6 complex binding curves are explained by less C6 protein being available for binding when wells are coated with C5b6 complex as opposed to C6 alone. […] The EC₅₀ values are included in the figure but slightly different plateau levels observed for the antibodies are influencing the apparent EC₅₀ values. However, it was noted that the EC₅₀ values tended to be lower on the plates for the second set of antibodies. For this reason, a subset of the 20 antibodies was tested in a further ELISA for binding to C6 and C5b6 complex.
as §2

[3] = biological target: T1, human complement protein C6; assay: ELISA, C6-coated wells, large-scale purified antibody
[4] = biological target: T1, human complement protein C6; assay: C6-binding ELISA, A650 nm; sample 'PBS' (28 days at 37 C) [cont.) E]
Procedure: (§3) For the serum stability assessment, samples of the purified candidate antibodies are normally incubated in mouse, human and cynomolgus serum at 37 C for 28 days and then tested in an antigen-binding ELISA. Since the anti-C6 antibodies are expected to bind to both human and cynomolgus C6 but not mouse C6, we anticipated that incubating in human or cynomolgus sera would reduce ELISA binding due to occupation of the antibody binding sites by C6 protein from the sera. Therefore, the chimeric and humanized antibodies were tested with human and mouse sera and with human sera from which the C6 protein has been depleted. The C6-binding ELISA was then used to compare the binding abilities of the C601 antibodies that had been incubated in the 3 different sera to antibody samples that were incubated in PBS at 37 C or kept at 4 C (non-incubated).
(§4) The Uncle instrument (Unchained Labs) was used to monitor unfolding via intrinsic fluorescence and aggregation by static light scattering across a temperature gradient to obtain melting temperatures (Tₘ). […] Isoelectric points were determined by capillary isoelectric focusing using a PA800+ (Beckman Coulter). […]

[5] = biological target: T1, human complement protein C6; assay: SPR (Biacore 8K), IgG on protein G chip, C6 0.03-25 nM 3-fold series, 1:1 fit
Procedure: as §1, §2

[6] = biological target: T1, human complement protein C6; assay: SPR (Biacore 8K), IgG on protein G chip, C6 0.31-20 nM 2-fold series, 1:1 fit
Procedure: as §1

[7] = biological target: T1, human complement protein C6; assay: C6-binding ELISA, A650 nm; sample 'mouse serum' (28 days at 37 C) [cont.) E]
Procedure: as §3, with “The C6-binding ELISA was then used to compare the binding abilities of the C601 antibodies that had been incubated in the 3 different sera to antibody samples that were incubated in PBS at 37 C or kept at 4 C (non-incubated).” left out
as §2, with “Precise kinetic measurements were obtained by surface plasmon resonance (Biacore 8K, Cytiva). The IgG were captured on a protein G sensor chip. Binding of C6 measured using a three-fold concentration series of C6 from 0.03 nM-25 nM and data were fitted using a 1:1 model in two independent experiments.” left out

[8] = biological target: T1, human complement protein C6; assay: C6-binding ELISA, A650 nm; sample 'PBS, non-incubated' (kept at 4 C) [cont.) E]
Procedure: (§5) The C6-binding ELISA was then used to compare the binding abilities of the C601 antibodies that had been incubated in the 3 different sera to antibody samples that were incubated in PBS at 37 C or kept at 4 C (non-incubated).
as §2, with “Precise kinetic measurements were obtained by surface plasmon resonance (Biacore 8K, Cytiva). The IgG were captured on a protein G sensor chip.” left out
(§6) The Uncle instrument (Unchained Labs) was used to monitor unfolding via intrinsic fluorescence and aggregation by static light scattering across a temperature gradient to obtain melting temperatures (Tₘ). […] Isoelectric points were determined by capillary isoelectric focusing using a PA800+ (Beckman Coulter).

[9] = biological target: T1, human complement protein C6; assay: C6-binding ELISA, A650 nm; sample 'C6-depleted human serum' (28 days at 37 C) [cont.) E]
Procedure: as §3, with “The C6-binding ELISA was then used to compare the binding abilities of the C601 antibodies that had been incubated in the 3 different sera to antibody samples that were incubated in PBS at 37 C or kept at 4 C (non-incubated).” left out
as §2, with “Precise kinetic measurements were obtained by surface plasmon resonance (Biacore 8K, Cytiva). The IgG were captured on a protein G sensor chip. Binding of C6 measured using a three-fold concentration series of C6 from 0.03 nM-25 nM and data were fitted using a 1:1 model in two independent experiments.” left out

[10] = biological target: T1, human complement protein C6; assay: C6-binding ELISA, A650 nm; sample 'human serun' (human serum, 28 days at 37 C) [cont.) E]
Procedure: as §3, with “The C6-binding ELISA was then used to compare the binding abilities of the C601 antibodies that had been incubated in the 3 different sera to antibody samples that were incubated in PBS at 37 C or kept at 4 C (non-incubated).” left out
as §2, with “Precise kinetic measurements were obtained by surface plasmon resonance (Biacore 8K, Cytiva). The IgG were captured on a protein G sensor chip. Binding of C6 measured using a three-fold concentration series of C6 from 0.03 nM-25 nM and data were fitted using a 1:1 model in two independent experiments.” left out

[11] = biological target: T1, human complement protein C6; assay: C6-binding ELISA, A650 nm; sample 'PBS' (28 days at 37 C) [cont.) F]
Procedure: as §3, §4

[12] = biological target: T1, human complement protein C6; assay: C6-binding ELISA, A650 nm; sample 'mouse serum' (28 days at 37 C) [cont.) F]
Procedure: as §3, with “The C6-binding ELISA was then used to compare the binding abilities of the C601 antibodies that had been incubated in the 3 different sera to antibody samples that were incubated in PBS at 37 C or kept at 4 C (non-incubated).” left out
as §2, with “Precise kinetic measurements were obtained by surface plasmon resonance (Biacore 8K, Cytiva). The IgG were captured on a protein G sensor chip. Binding of C6 measured using a three-fold concentration series of C6 from 0.03 nM-25 nM and data were fitted using a 1:1 model in two independent experiments.” left out

[13] = biological target: T1, human complement protein C6; assay: C6-binding ELISA, A650 nm; sample 'PBS, non-incubated' (kept at 4 C) [cont.) F]
Procedure: as §5
as §2, with “Precise kinetic measurements were obtained by surface plasmon resonance (Biacore 8K, Cytiva). The IgG were captured on a protein G sensor chip.” left out
as §6

[14] = biological target: T1, human complement protein C6; assay: C6-binding ELISA, A650 nm; sample 'C6-depleted human serum' (28 days at 37 C) [cont.) F]
Procedure: as §3, with “The C6-binding ELISA was then used to compare the binding abilities of the C601 antibodies that had been incubated in the 3 different sera to antibody samples that were incubated in PBS at 37 C or kept at 4 C (non-incubated).” left out
as §2, with “Precise kinetic measurements were obtained by surface plasmon resonance (Biacore 8K, Cytiva). The IgG were captured on a protein G sensor chip. Binding of C6 measured using a three-fold concentration series of C6 from 0.03 nM-25 nM and data were fitted using a 1:1 model in two independent experiments.” left out

[15] = biological target: T1, human complement protein C6; assay: C6-binding ELISA, A650 nm; sample 'human serun' (human serum, 28 days at 37 C) [cont.) F]
Procedure: as §3, §4

| Binder | Kd [1] | binding result [2] | EC50 [3] | EC50 [4] | Kd [5] | koff [5] | kon [5] | Kd [6] | koff [6] | kon [6] | EC50 [7] | EC50 [8] | EC50 [9] | EC50 [10] | EC50 [11] | EC50 [12] | EC50 [13] | EC50 [14] | EC50 [15] |
| --- | --- | --- | --- | --- | --- | --- | --- | --- | --- | --- | --- | --- | --- | --- | --- | --- | --- | --- | --- |
| B1 | 0.411 nM | no binding | 0.21 nM | 0.18 nM | 0.411 nM | 0.000492 s⁻¹ | 1.2e+06 M⁻¹ s⁻¹ | 0.284 nM | 0.000375 s⁻¹ | 1.32e+06 M⁻¹ s⁻¹ | 0.16 nM | 0.13 nM | 0.15 nM | 0.16 nM | – | – | – | – | – |
| B2 | 0.373 nM | no binding | 0.23 nM | – | 0.373 nM | 0.000397 s⁻¹ | 1.07e+06 M⁻¹ s⁻¹ | 0.299 nM | 0.000355 s⁻¹ | 1.19e+06 M⁻¹ s⁻¹ | – | – | – | – | 0.19 nM | 0.16 nM | 0.22 nM | 0.17 nM | 0.17 nM |
